Test results as given in PMC7766085.

Tests used:
[1] = target: AT1R, endogenous in mouse lung (mouse (endogenous in CD-1 mouse lung)) (UniProt P29754); assay: proximity ligation; in situ PLA on fixed 30 µm lung sections of adult CD-1 mice; primary antibodies to the receptor and to ACE2, Duolink II probes anti-rabbit plus and anti-mouse minus; confocal microscopy
[2] = target: MasR, endogenous in mouse lung (mouse (endogenous in CD-1 mouse lung)) (UniProt P30554); assay: as above
[3] = target: AT1R, endogenous in mouse lung (mouse (endogenous in CD-1 mouse lung)) (UniProt P29754); assay: proximity ligation; in situ PLA on fixed 30 µm lung sections of 19-day fetal CD-1 mice; primary antibodies to the receptor and to ACE2, Duolink II probes anti-rabbit plus and anti-mouse minus; confocal microscopy
[4] = target: MasR, endogenous in mouse lung (mouse (endogenous in CD-1 mouse lung)) (UniProt P30554); assay: as above
[5] = target: AT2R, endogenous in mouse lung (mouse (endogenous in CD-1 mouse lung)) (UniProt P35374); assay: proximity ligation; in situ PLA on fixed 30 µm lung sections of adult CD-1 mice; primary antibodies to the receptor and to ACE2, Duolink II probes anti-rabbit plus and anti-mouse minus; confocal microscopy
Sequence of UniProt P35374 (P35374 whole entry): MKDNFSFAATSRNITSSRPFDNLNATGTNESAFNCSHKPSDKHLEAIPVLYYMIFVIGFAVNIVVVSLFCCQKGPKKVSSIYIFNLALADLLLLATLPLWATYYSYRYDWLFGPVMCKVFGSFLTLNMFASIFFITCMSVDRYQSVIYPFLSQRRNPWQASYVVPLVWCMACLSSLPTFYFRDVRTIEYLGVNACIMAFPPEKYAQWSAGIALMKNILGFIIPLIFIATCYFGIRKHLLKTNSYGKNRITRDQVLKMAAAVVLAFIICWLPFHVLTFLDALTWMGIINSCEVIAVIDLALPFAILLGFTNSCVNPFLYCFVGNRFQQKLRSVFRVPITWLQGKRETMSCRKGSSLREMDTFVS

[6] = target: AT2R, endogenous in mouse lung (mouse (endogenous in CD-1 mouse lung)) (UniProt P35374); assay: proximity ligation; in situ PLA on fixed 30 µm lung sections of 19-day fetal CD-1 mice; primary antibodies to the receptor and to ACE2, Duolink II probes anti-rabbit plus and anti-mouse minus; confocal microscopy

Sequence of UniProt P29754 (P29754 whole entry): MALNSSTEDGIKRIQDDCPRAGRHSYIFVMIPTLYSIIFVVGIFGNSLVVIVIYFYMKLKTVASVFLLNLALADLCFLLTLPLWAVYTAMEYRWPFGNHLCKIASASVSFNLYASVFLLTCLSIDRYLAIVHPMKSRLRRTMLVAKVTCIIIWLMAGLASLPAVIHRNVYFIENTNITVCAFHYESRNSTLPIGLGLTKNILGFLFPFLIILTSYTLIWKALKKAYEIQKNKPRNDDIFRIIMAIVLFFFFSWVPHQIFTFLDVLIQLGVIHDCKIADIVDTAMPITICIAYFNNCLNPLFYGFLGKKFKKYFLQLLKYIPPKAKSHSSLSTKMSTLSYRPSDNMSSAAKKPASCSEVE
Sequence of UniProt P30554 (P30554 whole entry): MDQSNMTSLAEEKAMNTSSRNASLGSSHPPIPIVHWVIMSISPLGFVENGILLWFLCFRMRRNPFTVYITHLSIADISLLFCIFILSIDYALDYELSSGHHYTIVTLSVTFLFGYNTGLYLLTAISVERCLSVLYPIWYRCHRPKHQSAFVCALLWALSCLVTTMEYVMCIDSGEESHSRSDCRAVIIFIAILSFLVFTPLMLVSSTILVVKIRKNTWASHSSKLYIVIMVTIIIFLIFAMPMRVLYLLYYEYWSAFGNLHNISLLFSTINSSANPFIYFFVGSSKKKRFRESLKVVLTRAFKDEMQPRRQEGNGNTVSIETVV

percent of cells with PLA signal [1]	red dots per dot-containing cell (red dots/cell-expressing dots) [1]	percent of cells with PLA signal [2]	red dots per dot-containing cell (red dots/cell-expressing dots) [2]	percent of cells with PLA signal [3]	percent of cells with PLA signal [4]	percent of cells with PLA signal [5]	red dots per dot-containing cell (red dots/cell-expressing dots) [5]	percent of cells with PLA signal [6]	Substance
14 % of cells	10	8 % of cells	7	< 1 % of cells	< 1 % of cells				ACE2, endogenous in mouse lung (from UniProt Q8R0I0 18-805) (enzyme)
						11 % of cells	6	< 1 % of cells	ACE2, endogenous in mouse lung (from UniProt Q8R0I0 18-805) (proximity to ACE2)
